Test results as given in article PMC10144703, “Molecular Mechanism of Sirtuin 1 Inhibition by Human Immunodeficiency Virus 1 Tat Protein” (Life, 2023).
Where no end group is shown, it is not given here.

B1: Tat-Cys^−-(1–86), full-length HIV1 Tat (Zaire 2 isolate) with its 7 Cys residues replaced by Ser/Ala (natural protein)
chain: MDPVDPNIEPWNHPGSQPKTASNRAHAKKSAYHSQVAFITKGLGISYGRKKRRQRRRPSQGGQTHQDPIPKQPSSQPRGDPTGPKE
B2: human mini-Sirt1 (aa 183-505-(GGGS)2-641-665) (enzyme)
chain: GPYTFVQQHLMIGTDPRTILKDLLPETIPPPELDDMTLWQIVINILSEPPKRKKRKDINTIEDAVKLLQECKKIIVLTGAGVSVSCGIPDFRSRDGIYARLAVDFPDLPDPQAMFDIEYFRKDPRPFFKFAKEIYPGQFQPSLCHKFIALSDKEGKLLRNYTQNIDTLEQVAGIQRIIQCHGSFATASCLICKYKVDCEAVRGDIFNQVVPRCPRCPADEPLAIMKPEIVFFGENLPEQFHRAMKYDKDEVDLLIVIGSSLKVRPVALIPSSIPHEVPQILINREPLPHLHFDVELLGDCDVIINELCHRLGGEYAKLCCNPVGGGSGGGSQYLFLPPNRYIFHGAEVYSDSEDDV
notes: artificial linker, printed as (GGGS)2; human Sirt1, residues 641-665 (ESA region); Modified pET-19b with TEV cleavage site; source: E. coli CodonPlus(DE3), purified (nickel NTA, protease digestion, second nickel NTA, SEC)

Assays:
human full-length Sirt1 = molecular target: T1, human full-length Sirt1 (human, UniProt Q96EB6 1-747); assay: cell-based or functional assay
T1 sequence (looked up): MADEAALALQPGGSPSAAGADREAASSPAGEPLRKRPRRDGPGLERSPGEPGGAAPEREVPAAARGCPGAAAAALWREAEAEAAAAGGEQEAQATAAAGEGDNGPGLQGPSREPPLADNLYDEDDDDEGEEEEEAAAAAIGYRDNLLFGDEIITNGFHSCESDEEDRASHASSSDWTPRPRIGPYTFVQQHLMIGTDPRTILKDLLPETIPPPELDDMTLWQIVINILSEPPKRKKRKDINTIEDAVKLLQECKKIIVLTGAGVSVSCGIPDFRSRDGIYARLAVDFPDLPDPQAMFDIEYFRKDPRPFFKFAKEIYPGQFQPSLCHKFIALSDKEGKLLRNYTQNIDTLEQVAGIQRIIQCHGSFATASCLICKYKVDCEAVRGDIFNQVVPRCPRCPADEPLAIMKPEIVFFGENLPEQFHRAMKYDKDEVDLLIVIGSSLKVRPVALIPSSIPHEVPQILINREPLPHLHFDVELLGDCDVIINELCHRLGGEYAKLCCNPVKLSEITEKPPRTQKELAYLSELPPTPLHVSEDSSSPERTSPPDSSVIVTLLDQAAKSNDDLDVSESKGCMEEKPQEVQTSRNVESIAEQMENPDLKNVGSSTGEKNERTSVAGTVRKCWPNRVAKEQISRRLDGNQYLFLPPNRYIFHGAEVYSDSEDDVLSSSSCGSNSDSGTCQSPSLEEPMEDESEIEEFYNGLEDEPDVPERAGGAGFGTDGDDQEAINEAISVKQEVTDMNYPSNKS

[1] = molecular target: Sirt3 (as used in the activity assays) (human); assay: cell-based or functional assay
human mini-Sirt1 (aa …) = molecular target: B2; assay: cell-based or functional assay
Sirt2-(43-356) = molecular target: T2, Sirt2-(43-356) (human, UniProt Q8IXJ6 43-356); assay: cell-based or functional assay
T2 sequence (looked up): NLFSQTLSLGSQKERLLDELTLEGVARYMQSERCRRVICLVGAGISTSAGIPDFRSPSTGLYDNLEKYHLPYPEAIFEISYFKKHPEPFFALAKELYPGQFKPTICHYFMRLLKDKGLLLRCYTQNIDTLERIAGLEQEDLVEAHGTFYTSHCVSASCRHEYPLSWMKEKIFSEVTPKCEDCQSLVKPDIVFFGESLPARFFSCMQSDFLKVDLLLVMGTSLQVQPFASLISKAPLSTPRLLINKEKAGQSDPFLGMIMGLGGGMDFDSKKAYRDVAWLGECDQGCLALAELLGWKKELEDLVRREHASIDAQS

[2] = molecular target: B1; assay: NMR titration; unlabeled mini-Sirt1 (stock 260 µM) added stepwise to 100 µM 15N-labeled Tat-Cys^−; 150 mM sodium chloride, 10 mM potassium phosphate pH 6.4; 2D-(1H,15N)-HSQC at 298 K; details: both partners purified
human Sirt3-(118-399) = molecular target: T3, human Sirt3-(118-399) (human, UniProt Q9NTG7 118-399); assay: crystal structure; 10 mg/mL Sirt3-(118-399) incubated with 2 mM peptide for 60 min at 20 °C; sitting-drop vapor diffusion at 20 °C (MES pH 6.0/PEG 200/PEG 3000 for ac-Tat-46-54; CHES pH 9.0/PEG 8000 for Tat-37-59); details: both partners purified
T3 construct: human Sirt3, residues 118-399; The construct used for crystallization; also called hSirt3-(118-399); source: E. coli CodonPlus(DE3), pVFT3S, purified (nickel NTA, protease digestion, second nickel NTA, SEC)
T3 sequence (looked up): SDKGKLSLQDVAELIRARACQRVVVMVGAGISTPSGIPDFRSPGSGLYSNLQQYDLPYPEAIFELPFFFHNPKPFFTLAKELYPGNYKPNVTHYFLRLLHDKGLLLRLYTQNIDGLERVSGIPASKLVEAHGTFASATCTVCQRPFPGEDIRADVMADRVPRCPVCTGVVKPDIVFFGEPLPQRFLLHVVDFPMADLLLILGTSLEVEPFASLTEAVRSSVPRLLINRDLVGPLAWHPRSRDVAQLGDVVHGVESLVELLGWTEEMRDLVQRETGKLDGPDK

## B1
Human full-length Sirt1
  inhibition of fl-Sirt1 deacetylation of FdL substrate, FdL assay at substrate Km; IC50: 3.6 µM
  inhibition of fl-Sirt1 deacetylation of a p53-derived peptide, coupled enzymatic assay, 100 µM substrate; IC50: ~20 µM
[1]
  inhibition of Sirt3 in the FdL assay at substrate Km; IC50: 15.9 µM
Human mini-Sirt1 (aa …)
  inhibition of mini-Sirt1 deacetylation of p53 substrate, coupled-enzyme assay at substrate Km; IC50: 30 to 40 µM
  inhibition of mini-Sirt1 in the FdL assay at substrate Km; IC50: 2.3 µM
Sirt2-(43-356)
  inhibition of Sirt2 in the FdL assay at substrate Km; IC50: 11 µM

## B2
[2]
  binding result: binds

B3: ac-Tat-46–54 (peptide)
peptide: SYGRK(Ac)KRRQ
notes: HIV1 Tat, residues 46-54, acetylated at Lys50; also called Tat substrate peptide
Human Sirt3-(118-399)
  binding result: binds
